{
  "source": "patent US20100047230A1",
  "about": "(HELLENIC PASTEUR INSTITUTE, published 2010)",
  "binders": {"B1": {"name": "Fab63 (Fab, V domains shown)", "VH": "EVQLLEWGPGLVKPSGTLSLTCAVSGGSIRDSNWWGWVRQPPGKGLEWIGEIYHSGTTNYNPSLKSRVTISVDKSKNQFSLNLSSVTAADTAVYYCAREDCSYGSCYFDYWGQGTLVTVSS", "VL": "ELTLTQSPSSLSASLGDRVTIRCRASQSISAALNWYQQKPGKAPKLLIHDVSTLQSGVPARFSGGGSETDFTLTISSLQPEDFATYYCQQSYRVPLTFGGGTRLEIK", "notes": "Fully human soluble Fab made in E. coli from pComb3H; Heavy chain is an Fd of the gamma1 isotype (VH-CH1), light chain is kappa (VL of the K subgroup, with Ckappa); also called human Fab 63; clone 63"}},
  "assay_in_all_cases": "ELISA on coated antigen",
  "key": {"alpha1-ECD of human AChR": {"target": "T1, alpha1-ECD of human AChR (human, UniProt P02708 21-230, limits assumed)", "T1 construct": "extracellular domain; Irrelevant antigen control; also called α1-ECD; α1-AChR", "T1 sequence (P02708 21-230 limits assumed)": "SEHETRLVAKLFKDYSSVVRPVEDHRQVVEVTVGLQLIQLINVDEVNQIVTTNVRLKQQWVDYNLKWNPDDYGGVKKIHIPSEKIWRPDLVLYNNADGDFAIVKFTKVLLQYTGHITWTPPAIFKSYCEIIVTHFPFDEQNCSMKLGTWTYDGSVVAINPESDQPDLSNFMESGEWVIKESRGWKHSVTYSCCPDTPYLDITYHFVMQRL"}, "bovine serum albumin": {"target": "T2, bovine serum albumin (bovine, UniProt P02769 25-607)", "T2 construct": "Irrelevant antigen control; also called BSA", "T2 sequence (P02769 25-607 limits assumed)": "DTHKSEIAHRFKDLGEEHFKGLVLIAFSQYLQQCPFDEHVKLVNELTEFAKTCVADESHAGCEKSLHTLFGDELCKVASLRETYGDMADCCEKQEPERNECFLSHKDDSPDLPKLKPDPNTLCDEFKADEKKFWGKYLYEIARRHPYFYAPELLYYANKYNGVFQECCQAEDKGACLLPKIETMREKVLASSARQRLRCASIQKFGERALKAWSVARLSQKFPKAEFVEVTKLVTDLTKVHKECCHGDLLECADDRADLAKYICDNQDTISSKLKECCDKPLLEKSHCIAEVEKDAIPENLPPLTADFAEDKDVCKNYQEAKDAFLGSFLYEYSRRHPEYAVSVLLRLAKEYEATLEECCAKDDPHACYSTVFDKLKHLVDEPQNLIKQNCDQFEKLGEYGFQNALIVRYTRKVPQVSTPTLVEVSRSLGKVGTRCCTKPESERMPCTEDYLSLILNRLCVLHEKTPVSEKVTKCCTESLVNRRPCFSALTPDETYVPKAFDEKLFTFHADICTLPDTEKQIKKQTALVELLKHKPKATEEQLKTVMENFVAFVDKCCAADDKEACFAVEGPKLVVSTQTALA"}, "human serum albumin": {"target": "T3, human serum albumin (human, UniProt P02768 25-609)", "T3 construct": "Irrelevant antigen control, produced in P. pastoris; also called HSA"}},
  "data": [
    {"binder": "B1", "values": [
      {"measurement": "binding result", "setting": "alpha1-ECD of human AChR", "result": "no binding (tested: antigen coated at 10 µg/ml)"},
      {"measurement": "binding result", "setting": "bovine serum albumin", "result": "no binding (tested: antigen coated at 10 µg/ml)"},
      {"measurement": "binding result", "setting": "human serum albumin", "result": "no binding (tested: antigen coated at 10 µg/ml)"}
    ]}
  ]
}
